Test results from patent US20260242467A1.

Biological target: NKG2A (human) (UniProt P26715)
Assay: flow cytometry on primary NK cells, 0 µM mabkine control of the competition assay

Chain of UniProt P26715 (P26715 whole entry): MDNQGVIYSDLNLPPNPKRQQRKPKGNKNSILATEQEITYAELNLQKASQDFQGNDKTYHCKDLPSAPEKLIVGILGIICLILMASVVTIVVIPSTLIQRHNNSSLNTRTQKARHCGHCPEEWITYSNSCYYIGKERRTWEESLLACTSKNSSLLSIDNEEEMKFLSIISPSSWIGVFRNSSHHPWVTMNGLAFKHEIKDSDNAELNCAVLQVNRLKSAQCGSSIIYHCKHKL

## anti-NKG2A (S19004C) from Biolegend (antibody)
  % of CD56+ cells stained (without mabkine): 26.5%
